Test results published in the supplement of paper PMC10567573.

B1: POMT2 (parent)
chain: VLRSRIRFIHLVTGCVLGSSGKVL

Variants of: B1
Experiment: protein stability index of a GFP-peptide fusion (GPS, HEK-293T) (PSI 1-6); higher = more stable
Conditions: c terminus: a fixed tail appended
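Further: lentivirally expressed fusions sorted by FACS into six bins by GFP to DsRed ratio, PSI derived from sequencing read proportions per bin multiplied by bin number.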

Variant	protein stability index
VLRSRIRFIHLVTGCMLGSSGKVL [V16M]	3.73
VLRSRIRFIHLVTGCVSGSSGKVL [L17S]	2.9
VLRSLIRFIHLVTGCVLGSSGKVL [R5L]	3.1
VLRSSIRFIHLVTGCVLGSSGKVL [R5S]	1.06
VLRHRIRFIHLVTGCVLGSSGKVL [S4H]	2.09
VLRSRIRFIHLVTGCVLKSSGKVL [G18K]	2
YLRSRIRFIHLVTGCVLGSSGKVL [V1Y]	2.51
VLRSRIRFIHLVTGCVGGSSGKVL [L17G]	3.47
VLRSRIRFIHLHTGCVLGSSGKVL [V12H]	2.88
VPRSRIRFIHLVTGCVLGSSGKVL [L2P]	1.76
VLRSRIRFIHLVTNCVLGSSGKVL [G14N]	2.11
VLRSRIRFIHLVTGIVLGSSGKVL [C15I]	1.67
VLRSRIRFIHLVTLCVLGSSGKVL [G14L]	2.46
VLRSRKRFIHLVTGCVLGSSGKVL [I6K]	2.08
VLRSRIRFIHLVTGCVLGSSGKEL [V23E]	3.48
VLRSRIRFIHLVTGCVLGSSSKVL [G21S]	3.83
VLRSRICFIHLVTGCVLGSSGKVL [R7C]	2.94
VVRSRIRFIHLVTGCVLGSSGKVL [L2V]	2.83
VLRSRIRFIHLVTGCKLGSSGKVL [V16K]	3.78
VLRSRITFIHLVTGCVLGSSGKVL [R7T]	3
VLRSRIMFIHLVTGCVLGSSGKVL [R7M]	3.48
VLRSRIRFIHLVTGCVLGSRGKVL [S20R]	2.82
VLRSRIRFIHLVTGCVLGVSGKVL [S19V]	2.73
VFRSRIRFIHLVTGCVLGSSGKVL [L2F]	2.75

Variant	protein stability index
VLRSRIRFIHLVTGCVLGWSGKVL [S19W]	2.66
VLRSRIRFIHLVIGCVLGSSGKVL [T13I]	2.31
HLRSRIRFIHLVTGCVLGSSGKVL [V1H]	2.8
WLRSRIRFIHLVTGCVLGSSGKVL [V1W]	1.4
VLRSRIRFIHLVTDCVLGSSGKVL [G14D]	1.88
VLRSRIRFIHLVTGYVLGSSGKVL [C15Y]	3.56
VLRSRIRFIHLVTGMVLGSSGKVL [C15M]	2.21
VLRSRIRFIMLVTGCVLGSSGKVL [H10M]	1.99
VLRSRIRFIHLVTGCVLGSEGKVL [S20E]	1.99
VLRSRIWFIHLVTGCVLGSSGKVL [R7W]	2.28
VLRSRIRFIHLVFGCVLGSSGKVL [T13F]	1.64
VLRSRIRFIHLVTGCVLGSSGWVL [K22W]	3.35
KLRSRIRFIHLVTGCVLGSSGKVL [V1K]	2.88
VLRSRIRFIHLVTGCVLGFSGKVL [S19F]	2.63
VLRSRIRVIHLVTGCVLGSSGKVL [F8V]	2.68
VLRSRIRFIHHVTGCVLGSSGKVL [L11H]	2.02
VLRSRIRFIHLVTSCVLGSSGKVL [G14S]	3.28
VLRSRIRFIHLVAGCVLGSSGKVL [T13A]	2.01
VLRSRIRFIHLVTECVLGSSGKVL [G14E]	1.96
VLRSRIRFIHLVTGCVLGSSGKDL [V23D]	3.41
VLRSRIRFIHLVTGVVLGSSGKVL [C15V]	4.18
VLRSRIRFIHLVTGCVLGSSGHVL [K22H]	2.37
VLRSRIGFIHLVTGCVLGSSGKVL [R7G]	2.67
VLRSRIRFIHLVTGCVLGSSVKVL [G21V]	2.17

Variant	protein stability index
VLRSRIRFIHLVTGCVLGSVGKVL [S20V]	1.85
VLHSRIRFIHLVTGCVLGSSGKVL [R3H]	2.39
VLRSRIRFIHRVTGCVLGSSGKVL [L11R]	1.73
VLRSMIRFIHLVTGCVLGSSGKVL [R5M]	2.92
VLCSRIRFIHLVTGCVLGSSGKVL [R3C]	2.14
VLRSRIRFIHLVTGCVLGSSGKPL [V23P]	3.61
VLRSRIRFIHLVPGCVLGSSGKVL [T13P]	4.82
VLRSHIRFIHLVTGCVLGSSGKVL [R5H]	2.82
VSRSRIRFIHLVTGCVLGSSGKVL [L2S]	2.72
VLRSRRRFIHLVTGCVLGSSGKVL [I6R]	1.78
VLRSRIRFWHLVTGCVLGSSGKVL [I9W]	1.71
VLRSRIRFIHLVTGCVLGSSGKCL [V23C]	2.37
VLRSRIRFIHLVTGCVLGSSGKVG [L24G]	3.89
VLRSRIRFIHLVTGCVLGSSGKQL [V23Q]	3.61
VLRSRIRIIHLVTGCVLGSSGKVL [F8I]	3.13
ALRSRIRFIHLVTGCVLGSSGKVL [V1A]	2.38
VLRSRIRFAHLVTGCVLGSSGKVL [I9A]	4.43
VLRSRIRFIFLVTGCVLGSSGKVL [H10F]	3.38
VLRSRFRFIHLVTGCVLGSSGKVL [I6F]	3.11
VLRSNIRFIHLVTGCVLGSSGKVL [R5N]	2.48
VLRSRIRFIHLVTGCVLGSSGKVD [L24D]	2.33
VLRSRIRFHHLVTGCVLGSSGKVL [I9H]	4.48
VLRSRIRFIHLVTGCVLGCSGKVL [S19C]	2.51
LLRSRIRFIHLVTGCVLGSSGKVL [V1L]	2.15

Variant	protein stability index
VLRSRIRFIHLVTGCVQGSSGKVL [L17Q]	1.08
VLRSFIRFIHLVTGCVLGSSGKVL [R5F]	2.21
VLRSRIRFIHLVTGCVRGSSGKVL [L17R]	2.35
VLRSRIRFIILVTGCVLGSSGKVL [H10I]	3.35
VLRSRIRFIHLVTGCVLGSSIKVL [G21I]	1.98
VLRSRIRFIHLVTGCVDGSSGKVL [L17D]	3.16
VLRSRIRFIHLVTWCVLGSSGKVL [G14W]	2.51
VLRSRIRFEHLVTGCVLGSSGKVL [I9E]	2.34
VLRSRIRFIHLVTGCVLGSSGKVI [L24I]	4.08
VLRDRIRFIHLVTGCVLGSSGKVL [S4D]	2.56
VLRSRIRFIHLVTGCVLGSDGKVL [S20D]	2.12
VLRSRIRFIHLVTFCVLGSSGKVL [G14F]	3.15
VLRSRIRFIHLVTGCVLGSSTKVL [G21T]	2
VLRSRIRFIHLVTGCVLGSSGKVN [L24N]	1.89
VLRSRIRFIHLVTGCVLGSSGVVL [K22V]	3.02
VLRSRIRFIHLVTGCVLGSSMKVL [G21M]	3.38
VLRSRPRFIHLVTGCVLGSSGKVL [I6P]	3.19
VLRSRIRFIHLVTGCVLGASGKVL [S19A]	1.93
VLRSRIRFIHLVTGCVLGSSGKRL [V23R]	1.46
VLRSTIRFIHLVTGCVLGSSGKVL [R5T]	1.99
VLRSRHRFIHLVTGCVLGSSGKVL [I6H]	2.53
VLRSRIRFIHLVTGCVVGSSGKVL [L17V]	2.1
VLRSRIRPIHLVTGCVLGSSGKVL [F8P]	1.48
VLRSRIRFIHLCTGCVLGSSGKVL [V12C]	2.2

Variant	protein stability index
VLRSRIRFIHLVTGFVLGSSGKVL [C15F]	1.72
VLRSYIRFIHLVTGCVLGSSGKVL [R5Y]	2.99
VLRSWIRFIHLVTGCVLGSSGKVL [R5W]	2.14
VLRSRILFIHLVTGCVLGSSGKVL [R7L]	2.52
VLISRIRFIHLVTGCVLGSSGKVL [R3I]	3.85
VLRSRIRFIHLVTGCVLSSSGKVL [G18S]	3.06
VLRSRIRFIHLVTGCVLGSSGKKL [V23K]	2.21
VLRSRIRFYHLVTGCVLGSSGKVL [I9Y]	3.49
VLRSRIRFIHLVTGCVLGGSGKVL [S19G]	1.99
VLRSRIRFIHLVTRCVLGSSGKVL [G14R]	2.85
VLRSRIYFIHLVTGCVLGSSGKVL [R7Y]	2.4
VLRSRIRFIHLLTGCVLGSSGKVL [V12L]	2.13
VLRSRIRFIHLVLGCVLGSSGKVL [T13L]	3.22
VLRSRIRFIHLVTGCVWGSSGKVL [L17W]	3.74
VLRIRIRFIHLVTGCVLGSSGKVL [S4I]	2.53
VLRSRIRFIALVTGCVLGSSGKVL [H10A]	2.56
VLRSRIRFIHLVTGCVLGSSNKVL [G21N]	2.47
VLRSRIAFIHLVTGCVLGSSGKVL [R7A]	3.22
VLRSRIRFIYLVTGCVLGSSGKVL [H10Y]	2.84
VLRSRIRFRHLVTGCVLGSSGKVL [I9R]	1.39
VLRSRIRFIHLVTGSVLGSSGKVL [C15S]	3.04
VLRSRIRFGHLVTGCVLGSSGKVL [I9G]	2.62
VLRSRIRFIHLVTGPVLGSSGKVL [C15P]	2.12
VLRSRIRFIHLGTGCVLGSSGKVL [V12G]	1.84

Variant	protein stability index
VLRSRIRFIHLVTGCVLGSWGKVL [S20W]	2.12
VLRSRIRFIHLVTGCVLGSSFKVL [G21F]	2.53
VLRSRIRFIHLVTGCVLGSSGAVL [K22A]	2.25
VLRSRIRFCHLVTGCVLGSSGKVL [I9C]	1.74
VLRSRMRFIHLVTGCVLGSSGKVL [I6M]	2.88
VLVSRIRFIHLVTGCVLGSSGKVL [R3V]	2.18
VLRSRIRFIHLVTGCELGSSGKVL [V16E]	2.4
VLRSRIRFIHLVTVCVLGSSGKVL [G14V]	4.81
VLRSRIRFIHLETGCVLGSSGKVL [V12E]	4.33
VLRSRIRFIHLVTGCVLGSSLKVL [G21L]	3.1
VLRSRIRFIHLVTGCVLGSSGKVH [L24H]	3.1
VLRSRIRFIHLVTGCVLGSGGKVL [S20G]	2.08
VLRRRIRFIHLVTGCVLGSSGKVL [S4R]	2.66
VLTSRIRFIHLVTGCVLGSSGKVL [R3T]	2.65
VLRSRIRFIHLVTGAVLGSSGKVL [C15A]	3.27
VLRSRIRFSHLVTGCVLGSSGKVL [I9S]	2.78
VLRSRIRFIHLVTGCVLGSSGKVW [L24W]	4.21
VLRSRIDFIHLVTGCVLGSSGKVL [R7D]	1.59
VLRSRIRFIHLVTGCVLGSHGKVL [S20H]	2.64
VLRSRIRFFHLVTGCVLGSSGKVL [I9F]	1.85
VLRSRIRFIHLVTGCILGSSGKVL [V16I]	1.6
VLRSRIRFIHLVTGWVLGSSGKVL [C15W]	2.95
VERSRIRFIHLVTGCVLGSSGKVL [L2E]	1.06
VLRSRIRFIHLVTGCVLGSSAKVL [G21A]	2.99

Variant	protein stability index
VLRSRIRFIHLVTGCVLESSGKVL [G18E]	2.45
PLRSRIRFIHLVTGCVLGSSGKVL [V1P]	3.01
VLRSRIRFILLVTGCVLGSSGKVL [H10L]	1.87
VLRSRIRFIHLVTGCVLGSLGKVL [S20L]	2.12
VLRSRARFIHLVTGCVLGSSGKVL [I6A]	1.64
VLRSRIRFIHLVTGCVLGSYGKVL [S20Y]	2.86
VLRSRIRFIHLVTGCVLGSSHKVL [G21H]	3.14
VLRSRIRFIHLVTYCVLGSSGKVL [G14Y]	3.68
VLRSRIRFIHLVTGCHLGSSGKVL [V16H]	3.17
VLRSRIRFIHIVTGCVLGSSGKVL [L11I]	2.01
VLRSRGRFIHLVTGCVLGSSGKVL [I6G]	2.81
VLRSRIRFIHLSTGCVLGSSGKVL [V12S]	2.53
VLRSRIEFIHLVTGCVLGSSGKVL [R7E]	2.94
VLRSRIRFQHLVTGCVLGSSGKVL [I9Q]	2.87
VLRSRIREIHLVTGCVLGSSGKVL [F8E]	1.76
VLRSRIRFIHLVTGEVLGSSGKVL [C15E]	3.73
VLRSRIRFIHLVTGCVLGSSGDVL [K22D]	3.31
VLRSRIRFIHLVTGCVMGSSGKVL [L17M]	2.42
VLRSRIRAIHLVTGCVLGSSGKVL [F8A]	1.04
VLRSRIRCIHLVTGCVLGSSGKVL [F8C]	3.6
VLRSRIRFIHLVVGCVLGSSGKVL [T13V]	3.37
VLRSRIRFIHLVTGKVLGSSGKVL [C15K]	3.31
VLRSRIRFIHLVEGCVLGSSGKVL [T13E]	2.08
VLRSRIRFIHLVTGCVLGSSGKVY [L24Y]	2.18

Variant	protein stability index
VLRSRIRFIHLVTGCVLDSSGKVL [G18D]	1.67
VLRSRIRFIHLVTGCVLGDSGKVL [S19D]	3.66
VLRSRIRFNHLVTGCVLGSSGKVL [I9N]	2.64
VLRSRIRFIHLMTGCVLGSSGKVL [V12M]	3.2
VLRFRIRFIHLVTGCVLGSSGKVL [S4F]	2.29
VLRSRIRHIHLVTGCVLGSSGKVL [F8H]	2.79
VLRSRIRFIHLVTGCVLGISGKVL [S19I]	2.59
VLFSRIRFIHLVTGCVLGSSGKVL [R3F]	2.27
VLRSRINFIHLVTGCVLGSSGKVL [R7N]	2.44
VLRSRIRFIHLVTGCVLGSSDKVL [G21D]	3.45
VNRSRIRFIHLVTGCVLGSSGKVL [L2N]	2.4
VLRERIRFIHLVTGCVLGSSGKVL [S4E]	2.36
VKRSRIRFIHLVTGCVLGSSGKVL [L2K]	3.28
VLRSRIRFIHEVTGCVLGSSGKVL [L11E]	2.96
VLRSRIRFIHLVTGCVLGSPGKVL [S20P]	1.69
VLRSRIRFIHLVTGCVLGSSGKVM [L24M]	2.42
VLRSRIRFIHLVTGCFLGSSGKVL [V16F]	1.63
VLRSRIRFIHLVTGCVLTSSGKVL [G18T]	2.14
VLRSRIRFIHLVTGCVLGSCGKVL [S20C]	3.22
VLRSRIRFIHLVTGCVLGSSGYVL [K22Y]	2.74
